The values below come from patent publication US20020031818A1, “Modification of Mdm2 activity” (priority 2000, published 2002).

For this experiment, the target named is Mdm2 (Homo sapiens, UniProt Q00987). The experiment can be described thus: Mdm2 sumoylation in EJ cells. The class given is cell-based, mouse. Also on record: expressed in transfected cells; host or cells: EJ mouse fibroblasts (p19ARF null). Particulars: EJ cells (lack p19ARF), Flag-Mdm2 and p19ARF constructs 2 μg. The procedure:
FIG. 13A-13E. A. Bacterially expressed and purified Mdm2 (1 μg) was incubated with ^32P-labeled Sumo-1, purified Aos1/Uba2 and Ubc9 (0.5 μg) for 60 min at 37° C. in conjugation buffer. For indicated time-periods in vitro translated wt or mutant p19^ARF ([…]) was added to the sumoylation reactions. Upper panel depicts the amount of Sumoylated Mdm2, lower panel reveal the level of Mdm2 and Sumo-Mdm2 in Coomassie blue gel. B. Bacterially expressed and purified Mdm2 (1 μg) was incubated with in vitro-translated ^35S-Sumo, purified Aos1/Uba2 and Ubc9 (0.5 μg) for 60 min at 37° C. in conjugation buffer in the presence of the increasing amounts of bacculovirus-expressed p19^ARF (0, 0.1, 0.5, 1 μg; lanes 1-4 respectively). Bead-bound complexes were washed before being denatured in 3× Sample Buffer. Proteins were separated on 8% SDS-PAGE. Gel was stained with Coomassie blue to verify equal Mdm2 input (lower panel), dried and exposed to X-ray film, which depicts SUMO-1 conjugation to Mdm2 in the presence of the indicated p19 forms (upper panel). […] (Left) Immunoprecipitated Mdm2 was detected using monoclonal Mdm2 antibodies (2A10, left). […] SUMO-conjugation to Mdm2 was detected using monoclonal antibodies to SUMO-1 (top). […]

Sequence of Mdm2 (Q00987 whole entry): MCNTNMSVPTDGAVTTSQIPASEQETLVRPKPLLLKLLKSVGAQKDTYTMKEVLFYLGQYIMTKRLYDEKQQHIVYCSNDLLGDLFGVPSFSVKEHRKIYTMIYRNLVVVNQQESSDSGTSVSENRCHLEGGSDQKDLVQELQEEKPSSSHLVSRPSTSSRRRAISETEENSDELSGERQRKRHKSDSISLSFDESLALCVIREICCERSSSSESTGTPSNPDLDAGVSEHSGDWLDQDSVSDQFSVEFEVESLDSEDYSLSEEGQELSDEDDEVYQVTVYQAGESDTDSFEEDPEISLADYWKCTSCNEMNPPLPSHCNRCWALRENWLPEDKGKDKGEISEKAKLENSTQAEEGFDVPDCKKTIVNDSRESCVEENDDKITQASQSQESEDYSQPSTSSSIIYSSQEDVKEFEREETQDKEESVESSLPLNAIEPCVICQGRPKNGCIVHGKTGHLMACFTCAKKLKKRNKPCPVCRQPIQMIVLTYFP

B1: p19^ARF: Mdm2-regulating protein; in vitro translated, bacculovirus-expressed or transfected (protein)
chain: MGRRFLVTVRIQRAGRPLQERVFLVKFVRSRRPRTASCALAFVNMLLRLERILRRGPHRNPGPGDDDGQRSRSSSSAQLRCRFELRGPHYLLPPGARRSAGRLPGHAGGAARVRGSAGCARCLGSPAARLGPRAGTSRHRAIFAFRWVLFVFRWVVFVYRWERRPDRRA
As for B1, the “Mdm2 sumoylation in EJ cells upon co-expression” value was “inhibition of Mdm2 sumoylation”.
